These results are taken from PMC10853767.

For this assay, the target named is NLS-GS-HIStag-GS-dCas12e-ABI (ABI domain fused directly to dCas12e).

On to “HA-PYL1-linker-VP64-NLS (PYL1 fused to VP64) (domain or fragment)”, for which the yEGFP activation efficiency of the ABA-sensing YES gate with ABI fused directly to dCas12e and an unchanged sgRNA, circuit 3x; the pair is bridged by the small molecule ABA came out at 2.79 fold.
